T1: biotinylated Interleukin-6 receptor (IL-6R) (human, UniProt P08887 20-344, limits assumed, biotinylated (method of BMC biotechnology, 2008, 8, 41 and Protein Science, 1999, 8, 921-929); site not stated)
T1 construct: also called human IL-6 receptor; hIL-6R
T1 sequence (looked up): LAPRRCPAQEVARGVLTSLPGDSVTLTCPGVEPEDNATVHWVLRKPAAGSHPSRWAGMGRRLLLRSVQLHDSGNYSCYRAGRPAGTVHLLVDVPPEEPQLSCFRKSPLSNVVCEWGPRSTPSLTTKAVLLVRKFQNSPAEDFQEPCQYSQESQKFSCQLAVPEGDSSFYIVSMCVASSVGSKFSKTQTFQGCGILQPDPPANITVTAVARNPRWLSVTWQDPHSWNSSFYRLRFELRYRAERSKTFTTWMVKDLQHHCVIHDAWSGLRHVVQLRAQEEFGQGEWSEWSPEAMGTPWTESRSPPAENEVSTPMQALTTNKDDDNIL

B1: Compound SP844 (peptide)
peptide: A[Phe(4-CF3)]WWV[Sar]GP[Hyp(Et)]SD[NMeS][Met(O2)]S-OH
modifications: lactam N-11
SMILES: CCO[C@@H]1C[C@H]2C(=O)N[C@@H](CO)C(=O)N[C@H](C(=O)N(C)[C@@H](CO)C(=O)N[C@@H](CCS(C)(=O)=O)C(=O)N[C@@H](CO)C(=O)O)CC(=O)N[C@@H](C)C(=O)N[C@@H](Cc3ccc(C(F)(F)F)cc3)C(=O)N[C@@H](Cc3c[nH]c4ccccc34)C(=O)N[C@@H](Cc3c[nH]c4ccccc34)C(=O)N[C@@H](C(C)C)C(=O)N(C)CC(=O)NCC(=O)N3CCC[C@H]3C(=O)N2C1
notes: Chemically synthesized, HPLC purified
B2: Compound SP845 (peptide)
peptide: A[NMeAla(4-thiazolyl)]IPVWW[Phe(4-CF3)][Met(O2)]VDW[NMeAla(4-thiazolyl)]S-OH
modifications: lactam N-11
SMILES: CC[C@H](C)[C@@H]1NC(=O)[C@H](Cc2cscn2)N(C)C(=O)[C@H](C)NC(=O)C[C@@H](C(=O)N[C@@H](Cc2c[nH]c3ccccc23)C(=O)N(C)[C@@H](Cc2cscn2)C(=O)N[C@@H](CO)C(=O)O)NC(=O)[C@H](C(C)C)NC(=O)[C@H](CCS(C)(=O)=O)NC(=O)[C@H](Cc2ccc(C(F)(F)F)cc2)NC(=O)[C@H](Cc2c[nH]c3ccccc23)NC(=O)[C@H](Cc2c[nH]c3ccccc23)NC(=O)[C@H](C(C)C)NC(=O)[C@@H]2CCCN2C1=O
notes: as for B1
B3: Compound SP846 (peptide)
peptide: ATIP[dY]WW[Phe(4-CF3)][Met(O2)]VDW[NMeAla(4-thiazolyl)]S-OH
modifications: lactam N-11
SMILES: CC[C@H](C)[C@@H]1NC(=O)[C@H]([C@@H](C)O)NC(=O)[C@H](C)NC(=O)C[C@@H](C(=O)N[C@@H](Cc2c[nH]c3ccccc23)C(=O)N(C)[C@@H](Cc2cscn2)C(=O)N[C@@H](CO)C(=O)O)NC(=O)[C@H](C(C)C)NC(=O)[C@H](CCS(C)(=O)=O)NC(=O)[C@H](Cc2ccc(C(F)(F)F)cc2)NC(=O)[C@H](Cc2c[nH]c3ccccc23)NC(=O)[C@H](Cc2c[nH]c3ccccc23)NC(=O)[C@@H](Cc2ccc(O)cc2)NC(=O)[C@@H]2CCCN2C1=O
notes: as for B1
B4: Compound SP848 (peptide)
peptide: ATWI[NMeF][Phg]W[βAla][Phe(4-CF3)][Phg]DVTS-OH
modifications: lactam N-11
SMILES: CC[C@H](C)[C@@H]1NC(=O)[C@H](Cc2c[nH]c3ccccc23)NC(=O)[C@H]([C@@H](C)O)NC(=O)[C@H](C)NC(=O)C[C@@H](C(=O)N[C@H](C(=O)N[C@H](C(=O)N[C@@H](CO)C(=O)O)[C@@H](C)O)C(C)C)NC(=O)[C@H](c2ccccc2)NC(=O)[C@H](Cc2ccc(C(F)(F)F)cc2)NC(=O)CCNC(=O)[C@H](Cc2c[nH]c3ccccc23)NC(=O)[C@H](c2ccccc2)NC(=O)[C@H](Cc2ccccc2)N(C)C1=O
notes: as for B1
B5: Compound SP842 (peptide)
peptide: [γEtAbu]T[Phg]I[NMeAla(4-thiazolyl)]WW[Phe(4-CF3)][dY][NMePhe(3-Cl)]DP[Sar]S-OH
modifications: lactam N-11
SMILES: CC[C@H](C)[C@@H]1NC(=O)[C@H](c2ccccc2)NC(=O)[C@H]([C@@H](C)O)NC(=O)CCCN(CC)C(=O)C[C@@H](C(=O)N2CCC[C@H]2C(=O)N(C)CC(=O)N[C@@H](CO)C(=O)O)NC(=O)[C@H](Cc2cccc(Cl)c2)N(C)C(=O)[C@@H](Cc2ccc(O)cc2)NC(=O)[C@H](Cc2ccc(C(F)(F)F)cc2)NC(=O)[C@H](Cc2c[nH]c3ccccc23)NC(=O)[C@H](Cc2c[nH]c3ccccc23)NC(=O)[C@H](Cc2cscn2)N(C)C1=O
notes: as for B1
B6: SEQ ID NO: PE-14 (IL-6R binder) peptide (peptide)
peptide: AII[NMeAla(4-thiazolyl)]WP[NMePhe(3-Cl)][Met(O2)][dY][βAla]DP[NMePhe(3-Cl)]SGSGSGS-{FlPu(urea)}
modifications: lactam N-11; reading uncertain
notes: Translated in ECL Translation Solution T, cyclized and desulfurized; not isolated; also called translation product of template DNA DME-14
B7: SEQ ID NO: PE-2 (IL-6R binder) peptide (peptide)
peptide: APII[NMeF][Met(O2)]P[NMePhe(3-Cl)][dY]VDSTSGSGSGS-{FlPu(urea)}
modifications: lactam N-11; reading uncertain
notes: Translated in ECL Translation Solution T, cyclized and desulfurized; not isolated; also called translation product of template DNA DME-2
B8: SEQ ID NO: PE-3 (IL-6R binder) peptide (peptide)
peptide: APIIW[NMePhe(3-Cl)][Met(O2)]P[NMePhe(3-Cl)][dY]DV[dY]SGSGSGS-{FlPu(urea)}
modifications: lactam N-11; reading uncertain
notes: Translated in ECL Translation Solution T, cyclized and desulfurized; not isolated; also called translation product of template DNA DME-3
B9: SEQ ID NO: PE-13 (IL-6R binder) peptide (peptide)
peptide: APVI[NMeF][Met(O2)]P[NMePhe(3-Cl)]V[Met(O2)]DP[Sar]SGSGSGS-{FlPu(urea)}
modifications: lactam N-11; reading uncertain
notes: Translated in ECL Translation Solution T, cyclized and desulfurized; not isolated; also called translation product of template DNA DME-13
B10: SEQ ID NO: PE-10 (TNFα binder) peptide (peptide)
peptide: ATIP[dY]WW[Phe(4-CF3)][Met(O2)]VDW[NMeAla(4-thiazolyl)]SGSGSGS-{FlPu(urea)}
modifications: lactam N-11; reading uncertain
notes: Translated in ECL Translation Solution T, cyclized and desulfurized; not isolated; also called translation product of template DNA DME-10
B11: SEQ ID NO: PE-9 (TNFα binder) peptide (peptide)
peptide: A[NMeAla(4-thiazolyl)]IPVWW[Phe(4-CF3)][Met(O2)]VDW[NMeAla(4-thiazolyl)]SGSGSGS-{FlPu(urea)}
modifications: lactam N-11; reading uncertain
notes: Translated in ECL Translation Solution T, cyclized and desulfurized; not isolated; also called translation product of template DNA DME-9
B12: SEQ ID NO: PE-11 (TNFα binder) peptide (peptide)
peptide: ATWI[NMeF][Phg]W[βAla][Phe(4-CF3)][Phg]DVTSGSGSGS-{FlPu(urea)}
modifications: lactam N-11; reading uncertain
notes: Translated in ECL Translation Solution T, cyclized and desulfurized; not isolated; also called translation product of template DNA DME-11
B13: SEQ ID NO: PE-8 (TNFα binder) peptide (peptide)
peptide: A[Phe(4-CF3)]WWV[Sar]GP[Hyp(Et)]SD[NMeS][Met(O2)]SGSGSGS-{FlPu(urea)}
modifications: lactam N-11; reading uncertain
notes: Translated in ECL Translation Solution T, cyclized and desulfurized; not isolated; also called translation product of template DNA DME-8

The term Kd denotes the free concentration of one partner at which half of the binding sites on the other are occupied at equilibrium, for simple one-to-one binding.

Starred links: 1 amine or outer side, 2 acyl side, 3 side chain; linkers in the order of their positions; H or OH if unused. Positions of bridges follow the written chain, without caps; N, C: chain ends. Non-standard residues stand in square brackets, D forms with d. Hyp(Et) = (2S,4R)-4-ethoxypyrrolidine-2-carboxylic acid, CCO[C@@H]1C[C@@H](C(=O)[*:2])N([*:1])C1; γEtAbu = 4-(ethylamino)butanoic acid, CCN(CCCC(=O)[*:2])[*:1]; Phe(4-CF3) = N[C@@H](Cc1ccc(C(F)(F)F)cc1)C(=O)O; NMeAla(4-thiazolyl) = CN[C@@H](Cc1cscn1)C(=O)O; NMePhe(3-Cl) = CN[C@@H](Cc1cccc(Cl)c1)C(=O)O; Met(O2) = CS(=O)(=O)CC[C@H](N)C(=O)O; NMeF = CN[C@@H](Cc1ccccc1)C(=O)O; FlPu(urea) = not defined here; Phg = N[C@H](C(=O)O)c1ccccc1; NMeS = CN[C@@H](CO)C(=O)O; βAla = NCCC(=O)O; Sar = CNCC(=O)O

T2 sequence (P01375 77-233 limits assumed): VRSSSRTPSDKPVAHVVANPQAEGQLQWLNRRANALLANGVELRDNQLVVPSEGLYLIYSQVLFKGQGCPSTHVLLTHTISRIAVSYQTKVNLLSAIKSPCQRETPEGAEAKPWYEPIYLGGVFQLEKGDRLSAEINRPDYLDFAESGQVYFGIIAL

The first assay concerns the target T2, biotinylated Recombinant Human Tumor Necrosis Factor-alpha (Prospec, Catalog Number #CYT-223) (human, UniProt P01375 77-233, biotinylated with EZ-Link NHS-PEG4-Biotin (Thermo scientific 21329); sites not stated).
T2 construct: Bought protein; also called TNFα; tumor necrosis factor-α
The assay is described as follows: SPR, Biacore T200, 20 C; biotinylated TNFα captured on sensor chip CAP, peptide as analyte; KD=koff/kon from curve fitting. Here is the method:
An SPR experiment for analyzing the interaction between synthetic peptides and TNFα was conducted using Biacore T200 (GE healthcare) at 20° C. Synthetic peptides were added to the immobilized protein, and the interaction was evaluated.
Surfactant P-20 and DMSO were added to the above phosphate buffered saline at final concentrations of 0.01 vol % and 5 vol %, respectively, and the resulting mixture was used as running buffer. CAP reagent was immobilized on a Biacore sensor chip, Series S sensor chip CAP (GE healthcare), according to the instructions, and biotinylated TNFα was immobilized. Each synthetic peptide was added at multiple concentrations, and sensorgrams for binding to the immobilized TNFα were provided to measure dissociation constants (KD).
The obtained sensorgrams were analyzed using T200 evaluation software (GE healthcare) or Scrubber2 (Biologic software). First, solvent correction for DMSO and double reference (correction by subtracting sensorgrams of flow cells where TNFα was not immobilized and sensorgrams in the case where the buffer was added) were carried out. Second, binding rate constants (kₒₙ) and dissociation rate constants (koff) were calculated from curve fitting to the corrected sensorgrams, and KDs were determined by the relational expression KD=koff/kₒₙ.
On the technique in general: SPR reads the build-up and loss of mass on a sensor chip optically.
Consider B1, for which the Kd came out at 20 nM.

For B2, the Kd came to 940 nM.

On to B3, for which the Kd was determined as 2000 nM.

In the case of B4, the Kd is 250 nM.

With B5, the Kd came to 160 nM.

The target of a further assay is T1, biotinylated Interleukin-6 receptor …. The assay is described as follows: ECL immunoassay (MSD): biotinylated target on streptavidin plate, translated FlPu(urea)-labelled cyclic peptide (Translation Solution T), anti-fluorescein and SULFO-TAG anti-mouse antibody; no-template control 177. Here is the method:
(§1) 0.5 μl of a 200 mM EDTA solution (pH 8.0, Nacalai, 14362-24) and 0.5 μl of a 100 mM TCEP solution (pH 6.6) were added to 5 μL of the translation mixture, and the mixture was incubated at 37° C. for 120 minutes to cause cyclization reaction. 11 μL of desulfurization buffer (15 mM cysteine, 36 mM TCEP) was added to the cyclization product, and the mixture was incubated at 42° C. for 1 minutes, after which 4 μL of 1 M VA-044 (Wako, CAS No. 27776-21-2) was added and the mixture was allowed to stand at 42° C. for 1 hour.
(§2) Immunoassay was carried out using the above peptide solution for ECL assay. 500 nM biotinylated target protein was added at 10 μL per well to MSD Streptavidin MULTI-ARRAY 384-well plate (Meso Scale Discovery, L25SB-1), and reaction was conducted at room temperature for 1 hour with shaking at 500 rpm to immobilize the target protein. 2% skim milk PBS was added at 50 μL per well, and blocking was carried out by allowing to stand at room temperature for 2 hours. The reaction solution was removed and the plate was washed with PBS containing 0.05% Tween 20 (PBST) three times, after which 10 μL of the peptide solution for ECL assay was added and the plate was shaken at room temperature for 50 minutes at 500 rpm. The reaction solution was removed and the plate was washed with PBST three times, after which 10 μL of IgG Fraction Monoclonal Mouse Anti-Fluorescein (Jackson ImmunoResearch, 200-002-037) diluted to 0.5 μg/mL with 2% skim milk PBS was added, and reaction was conducted at room temperature for 50 minutes with shaking at 500 rpm. The reaction solution was removed and the plate was washed with PBST three times, after which 10 μL of SULFO-TAG Anti-Mouse Antibody (Meso Scale Discovery, R32AC-5) diluted to 1 μg/mL with 2% skim milk PBS was added, and reaction was conducted at room temperature for 50 minutes with shaking at 500 rpm. The reaction solution was removed and the plate was washed with PBST three times, after which 35 μl, of 2× Read Buffer T (Meso Scale Discovery, R92TC-3) was added and measurement was carried out using SECTOR Imager 2400 (Meso Scale Discovery).
In the case of B6, the ECL signal is 45600.

In turn, B7 displayed an ECL signal of 307000.

With B8, the ECL signal was 70000.

In turn, B9 registered an ECL signal of 537000.

The target in another assay is T2, biotinylated Recombinant Human Tumor …. Briefly: ECL immunoassay (MSD): biotinylated target on streptavidin plate, translated FlPu(urea)-labelled cyclic peptide (Translation Solution T), anti-fluorescein and SULFO-TAG anti-mouse antibody; no-template control 232. Here is the method: as §1, §2
In the case of B10, the ECL signal turned out to be 50700.

Consider B11, for which the ECL signal worked out at 264000.

Consider B12, for which the ECL signal is 149000.

Turning to B13, the ECL signal was 73300.

The values above are taken from patent US20150080549A1 (Chugai, published 2015).
